Reference: article PMC11047093
Numbering of substitutions follows the chain as printed.

T1: His-APOBEC2 E100A (Mus musculus, UniProt Q9WV35 1-224, E100A)
T1 sequence: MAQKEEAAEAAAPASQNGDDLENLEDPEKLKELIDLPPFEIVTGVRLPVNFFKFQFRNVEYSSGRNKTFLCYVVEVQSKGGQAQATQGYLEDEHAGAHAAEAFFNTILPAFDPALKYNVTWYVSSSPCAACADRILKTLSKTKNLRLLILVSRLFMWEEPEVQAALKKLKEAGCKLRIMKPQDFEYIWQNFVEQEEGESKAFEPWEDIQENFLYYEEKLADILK

T2: His-APOBEC2 (Mus musculus, UniProt Q9WV35 1-224)
T2 sequence: T1 sequence with A100E

B1: A-tract (poly-A) motif (ssDNA)
DNA: TCTCAAGAAAAAAAAAAAAAGAC
B2: SP/KLF motif (ssDNA)
DNA: GGCGGCGCGGCCCCGCCCCCTCCTCCGGC

Assays:
His-APOBEC2 E100A = target: T1, His-APOBEC2 E100A; assay: MST
His-APOBEC2 = target: T2, His-APOBEC2; assay: MST

Row | Binder | binding result (His-APOBEC2 E100A) | Kd (His-APOBEC2) [nM]
1 | B1 | no binding | –
2 | B2 | no binding | 926 ± 243
